Read-outs that look alike come from different tables or passages of the source.
Columns and labels:
[1] = molecular target: T1, LbCas12a (Cas12a, NEB M0653T) (Lachnospiraceae bacterium, UniProt A0A5S8WF58 1-1228); assay: activation kinetics
[2] = molecular target: T1, LbCas12a (Cas12a, NEB M0653T); assay: activation kinetics; remark: listed apart in the source

Row | Binder | Kd [1] | Kd [2]
1 | crRNA-A19 + A19 ssDNA target (mixed) RNA: UAAUUUCUACUAAGUGUAGAUGACAUUUUGCUCUCAAGCUG DNA: ATTGAACCAGCTTGAGAGCAAAATGTCTGGTAAAGGCCAA | 0.36 ± 0.26 nM | 
2 | crRNA-A19 + A19 ssDNA-t target (mixed) RNA: UAAUUUCUACUAAGUGUAGAUGACAUUUUGCUCUCAAGCUG DNA: AACCAGCTTGAGAGCAAAATGTCTGGTAAAGGCCAA | 0.3 ± 0.25 nM | 
3 | crRNA-A2 + A2 ssDNA target (mixed) RNA: UAAUUUCUACUAAGUGUAGAUCAUGCCAAUGCGCGACAUUC DNA: TTCTTCGGAATGTCGCGCATTGGCATGGAAGTCACACCTT |  | 1.1 ± 0.4 nM
4 | crRNA-A2 + A2 ssDNA-t target (mixed) RNA: UAAUUUCUACUAAGUGUAGAUCAUGCCAAUGCGCGACAUUC DNA: TCGGAATGTCGCGCATTGGCATGGAAGTCACACCTT |  | 1.4 ± 0.7 nM
